Data as given in the DeepSol protein solubility set.

experiment: soluble on expression in E. coli; label from the status in PepcDB or PDB records

| Sequence | soluble on expression in E. coli |
| --- | --- |
| NRFIGYIQVACCCLLLCASCVRDGMDEDCNSYVRFVYDYNLEYIDLFHKQATKMNLYVFDEKGVFVTELKEESGAFAPDYLMTLPGAMAGRRYIFVAWSGLYGESYDKVTLTPGVSTLEDLEVSVNNLKTRIGGGVVDRELHLLWHGKQTEVSPQYNNDITTVSLLKNTKKFRIIMQMLDDSSIHVDDYDFRIISPNGRYNHENGLLGDETDEKVEYTAYHTEDDPETGAIAELNTLRLMTDTENRLVITHKSSGNVILDIPLNKYLNALRLQQYADIPLQEYLDRADKHGIILFFKGMDGNGNYISVDVQINGWLIRKQEVD | not soluble |
| MSLDEVSQKPHERLAAWLAEDMAAVNGLIRERMASKHAPRIPEVTAHLVEAGGKRLRPLLTLAAARLCGYEGPYHIHLAATVEFIHTATLLHDDVVDESHRRRGKPTANLLWDNKSSVLVGDYLFARSFQLMVETGSLRVMDILANASATISEGEVLQLTAAQDLRTTEDIYLQVVRGKTAALFAAATEVGGVVAGVPEAQVEALHAYGDALGIAFQIVDDLLDYGGVDAQIGKNTGDDFRERKLTLPVIKAVAQADAEERAFWQRVIEKGDQREGDLEQAHAIMSRHGAMEAARQDALRWVTVAREALGQLPEHPLREMLHDLADFVVERIAEGHHHHHH | soluble |
| TFKHSRDILGRTFDILVIDLSYDYSPNDLGRIIETVRGGGLIFVLTNPFEKWKDMWTGFHKSLVTPPYTIEDVKKRFNRRLIRKFTEHKGIYIVNTDRMSIERKPG | not soluble |
| MCPPYGANKFSRKKVMYVIVDIQGQQMKVEQGRRLFVHHIKDVESGASVEFDKVLLVDNNGAITVGSPLVEGAKVVCEVLTPLVKGDKVLIFHKKRRKGYRKLNGHRQQFTEILVKEVVA | not soluble |
| MKIAVLGASGWIGGTILNEALSRGHEVVALVRDPSKLGETAAEVRSVDLAKPLTADTFAGVDVLIASVGGRADLNHSLVAKTVNNLLALLPLAKVPRLLWVGGAGSLEVAPGVTLVSSPDFPPAYKDEALAQGEALKAFRAANTAVNWTFVSPAAEIYPGESEGLYRLGGDSFFTDAKGRSRISVTDYAKAMLDEAEKGAHPNQRISVAYLEHHHHHH | soluble |
| MAPQKCFLQIKGMTCASCVSNIERNLQKEAGVLSVLVALMAGKAEIKYDPEVIQPLEIAQFIQDLGFEAAVMEDYAGSDGNIELTITGMTCASCVHNIESKLTRTNGITYASVALATSKALVKFDPEIIGPRDIIKIIEEIGFHASLAQ | soluble |
| MGDAPSPEEKLHLITRNLQEVLGEEKLKEILKERELKIYWGTATTGKPHVAYFVPMSKIADFLKAGCEVTILFADLHAYLDNMKAPWELLELRVSYYENVIKAMLESIGVPLEKLKFIKGTDYQLSKEYTLDVYRLSSVVTQHDSKKAGAEVVKQVEHPLLSGLLYPGLQALDEEYLKVDAQFGGIDQRKIFTFAEKYLPALGYSKRVHLMNPMVPGLTGSKMSSSEEESKIDLLDRKEDVKKKLKKAFCEPGNVENNGVLSFIKHVLFPLKSEFVILRDEKWGGNKTYTAYVDLEKDFAAEVVHPGDLKNSVEVALNKLLDPIREKFNTPALKKLASAAYPDPSKQKPMAKGPAKNSEPEEVILEHHHHHH | soluble |
| MVGQVIRKRGAYPEYTVEDVLAVIFLLKEPLGRKQISERLELGEGSVRTLLRKLSHLDIIRSKQRGHFLTLKGKEIRDKLLSMFSEPIGVSVDGYPGIAIVVKNPPEFKSIELRDEAIKFDAKGAMILTVKDNEIVFPEDFRPLKEMYPEVAKKIVDYEDGDAVIITWAETPAKALKSAIHVAYILKKEEITPEILEVVK | soluble |
| MGSDKIHHHHHHMTQRTFTPPWWARNPHVQTILPVLTKVNKPALTRQRLELEDGDFIDLDWLAKPTQTAPTQIEPIVVLVHGLEGSADSHYARRLLTLLDDHKVAALVHHHRSCSGVTNRLARSYHSGDTQDLHTTLSQLRRDYPDSPLLAVGYSLGGNVLTKYMGEHGSDSLVDRAVVISAPLQLGACAKRLRHGFSKVYQSYLIKQLQQKVRDKLALPDLSAQMPVTQAEVESLTTFHLFDDRVTAPLHGFDGVEDYYRRASGLPYLSQVAKPTLVIHAKDDPFMTDEVIPTQEALSPQVTYELHPQGGHVGFIDGGHPFKPRYYLEQRIVHFLLEA | not soluble |
| MQEAIITSTVDLTSGGCNACGLVEDTVYTLAMNGVDIPLDGLTVAHLVSAIVARNGFKQELQMDMLDDEYILYRKEDTTVTFKEAYNHLSYDNGSEKIQSKNKLEDLPKLFEQVNQILTTVFGIGTVNFIIE | not soluble |
| MAHHHHHHMWCTRLCREEGLFRFLRNLFEVLDFVTERCRRCLDTSSCLLLLCASPLSSCSIGGPHTRGCFNEILHRLSRGAQQPAHRRQSATSSHPRTPWRLHRFNDERVCVWGGNPPPQSTTGRHRSLCTPFSLSHTPSTAWAPLLPADKHHMQASPVLAGAAVRRTATASVGSEPRTNLPFLINVVKKAQKSANTVVASTPALSSMSSTKEPPIQAAAFKPYPLLSPGEVKQAAGSSLLYKDDVCVLVNDAFPKSMVHCLVMPLDLRLQSLNALTKKDAPLLRHMLHVGDEYVRYLKTAVPHTYTARRFIAGFHALPSLPMLHMHVLSTDLDSPCLKNKKHYNSFATFFFLTGDRVLDDLERHGRVTLNQDVTRLRQMEEQDMKCLWCGTALPSVPAMKSHIQCCPQNKAVEKSS | not soluble |
| MSNFEKKYILELNDALSHLNHNSTSFDLLKVLISWLSNDIVIDKFKILGYDFSKYIEMNPDDYPVEKSILNREEIIYLKNNIYRKISSGNFKFQYFVQYIRDILEYLFIEHIERVCPYCEWGEMQKLEEQNTHETVYLCTQCGCAFYNDNSQFLLKTPLTIPMKRDEFK | not soluble |
| MGSDKIHHHHHHMSTELRRVTYGNHGVARLTPAPDKPGTYMGMPKFSKAVKGELNLSVQRKNMRNATMTIRNKRAMRVSESPDWQDLRDAAESIKNRVGRHLDHYLVEAEKNLTANGVHVHWARDGEEANRIVAQIAKDKGVDEVVKIKSITSQETDLNEYLEEQGIAAWETDLAELIVQLGHDRPSHIVVPAIHRNRAEVREIFLHEMKNYGRPAPEDISENPPELTNAARLHLREKFLRAEMAVSGGNFVLADTGSLVIVESEGNGRMCLTLPDTLVSIVGIEKVLPSFDDLEVFLKLLPRSATGERMNPYNSVWSGVTDGDGPQEQHVIFLDNGRTDVLADTLGREVLRCIRCASCINICPVYERAGGHAYGSVYPGPIGAVLNPQLRGVEHPVDRGLPYACSLCGACNEVCPVKIPFTDILLKLRNKVVKSEKADRIPQDYEVAGEMGLMKTASWAFSDHKHFEAIQVGSRGVGRVLRGKKMGPVPVPVAERWLKYRDVDAPPADTFRTWWKKNREAQR | not soluble |
| VGYGDITQVETSGASSKTSRQDKLEYDGVRASHTMAQTDAGRMEKYKSFINNVAKKHVVDPAVIAAIISRESRAGNVIFNTTPPGWGDNYNGFGLMQVDKRYHEPRGAWNSEEHIDQATGILVNFIQLIQKKFPSWSTEQQLKGAIAAYNTGDGRVESYESVDSRTTGKDYSNDVVARAQWYKKNGF | soluble |
| MSLSGAVFKTFLTSEHASWNRFNRRLHIPNEDIVDEIQLKARMQQRHHRVYPEIGDSTIVSFRGKDYAVHFIKDGPKDDYVYKVQRITPENGCFSTLFSVFSGGVTKALERKLNERHITPLSSTWFPRTPLEGILAERGLSSLLRRVQSTERLDNRAIATRASSYSVL | not soluble |
| MADVTGIALGMIETRGLVPAIEAADAMTKAAEVRLVGRQFVGGGYVTVLVRGETGAVNAAVRAGADACERVGDGLVAAHIIARVHSEVENILPKAPQA | soluble |
| MAYRDQPLGELALSIPRASALFRKYDMDYCCGGKQTLARAAARKELDVEVIEAELAKLAEQPIEKDWRSAPLAEIIDHIIVRYHDRHREQLPELILQATKVERVHADKPSVPKGLTKYLTMLHEELSSHMMKEEQILFPMIKQGMGSQAMGPISVMESEHDEAGELLEVIKHTTNNVTPPPEACTTWKAMYNGINELIDDLMDHISLENNVLFPRALAGE | not soluble |
| MISKRPDIYTQHDKAFSAVSAYVVLNSANERVATVALKFPCDGAGRLYAYVHWVGLEMVRGWAGGYGYDKRSAACASAARRIAIGNLTGDEWTNRRHEATAFVEALEKDSGEDWTRQLEAAGFKVFQAV | not soluble |
